The values below come from US20180320194A1 (PURDUE RESEARCH FOUNDATION, published 2018).

For data set [1], the target named is T1, PYL9 fused to the GAL4-DNA-binding domain (BD-PYL9) (Arabidopsis).
T1 construct: Y2H bait; also called pBD-GAL4-PYL9
Description: yeast two-hybrid, growth on media lacking His with and without ABA.

A further data set concerns the target T2, ABA-insensitive 1 (ABI1) (Arabidopsis, UniProt P49597 1-434).
T2 construct: Endogenous protein in the TAP-MS experiment
T2 sequence (looked up): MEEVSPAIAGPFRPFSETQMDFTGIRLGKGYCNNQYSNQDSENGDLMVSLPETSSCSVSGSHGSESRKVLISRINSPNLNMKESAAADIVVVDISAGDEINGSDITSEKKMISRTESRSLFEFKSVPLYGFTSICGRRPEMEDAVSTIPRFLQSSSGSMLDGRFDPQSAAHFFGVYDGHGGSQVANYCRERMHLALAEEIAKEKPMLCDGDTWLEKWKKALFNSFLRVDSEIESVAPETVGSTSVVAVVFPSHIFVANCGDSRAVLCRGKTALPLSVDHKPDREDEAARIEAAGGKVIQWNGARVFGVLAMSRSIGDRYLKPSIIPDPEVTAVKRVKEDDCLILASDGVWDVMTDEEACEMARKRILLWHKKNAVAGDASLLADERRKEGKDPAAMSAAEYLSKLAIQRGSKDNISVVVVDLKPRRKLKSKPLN
Description: tandem affinity purification (anti-HA agarose, GFP-Trap) from seedlings, MS identification. The method, then:
(§1) Ten-day-old seedlings of the transgenic Arabidopsis plants expressing ProPYL9:PYL9-HA-YFP (FIG. 12A) were used for tandem affinity purification. Seedlings (3-4 g fresh weight) were treated for 1 h with ½ Murashige and Skoog medium containing 100 μM ABA or 30 min with ½ Murashige and Skoog medium containing 0.8 M mannitol; for the control, seedlings were treated with ½ Murashige and Skoog medium for 1 h. After treatment, samples were quickly frozen, ground in liquid N₂, homogenized in an equal volume of 2× immunoprecipitation (IP) buffer (100 mM Tris.HCl, pH 7.5, 300 mM NaCl, 2 mM EDTA, 0.2% Nonidet P-40, 2× protease mixture; Roche), and then, centrifuged at 30,000×g for 30 min at 4° C. The supernatant was passed through a 0.2-μM filter and centrifuged again at 30,000×g for 30 min at 4° C. After that, the supernatant was incubated with 40 μL 50% (vol/vol) slurry of monoclonal anti-HA agarose with antibody produced in mouse (A2095; Sigma), which was prebalanced with 1×IP buffer. The mixture was inverted for 1 h at 4° C. on a shaker. The agarose was then washed four times with 1×IP buffer, three times with high NaCl buffer (50 mM Tris.HCl, pH 7.5, 500 mM NaCl, 1 mM EDTA), and finally, three times with 1×IP buffer. The protein that had bound to the anti-HA agarose was eluted by HA peptide (ab13835; Abcam) with a concentration of […] in 200 μL 1×IP buffer overnight at 4° C. […]

The target of another data set is T3, PP2CA (Arabidopsis, UniProt P49598 1-399).
T3 construct: Endogenous protein co-purified from seedlings and identified by MS
T3 sequence (looked up): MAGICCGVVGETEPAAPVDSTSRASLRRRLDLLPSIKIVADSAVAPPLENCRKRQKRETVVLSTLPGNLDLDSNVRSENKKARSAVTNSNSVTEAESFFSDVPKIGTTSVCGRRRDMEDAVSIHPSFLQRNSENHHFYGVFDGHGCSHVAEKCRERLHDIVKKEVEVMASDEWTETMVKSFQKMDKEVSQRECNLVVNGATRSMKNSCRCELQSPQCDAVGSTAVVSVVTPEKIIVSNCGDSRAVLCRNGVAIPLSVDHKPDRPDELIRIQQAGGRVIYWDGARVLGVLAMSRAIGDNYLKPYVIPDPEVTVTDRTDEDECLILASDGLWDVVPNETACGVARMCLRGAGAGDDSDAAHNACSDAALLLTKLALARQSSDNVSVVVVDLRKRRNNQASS
The description is as above. As to the method:
as §1

The target of a further data set is T4, ABF2, Q9M7Q4.
T4 chain: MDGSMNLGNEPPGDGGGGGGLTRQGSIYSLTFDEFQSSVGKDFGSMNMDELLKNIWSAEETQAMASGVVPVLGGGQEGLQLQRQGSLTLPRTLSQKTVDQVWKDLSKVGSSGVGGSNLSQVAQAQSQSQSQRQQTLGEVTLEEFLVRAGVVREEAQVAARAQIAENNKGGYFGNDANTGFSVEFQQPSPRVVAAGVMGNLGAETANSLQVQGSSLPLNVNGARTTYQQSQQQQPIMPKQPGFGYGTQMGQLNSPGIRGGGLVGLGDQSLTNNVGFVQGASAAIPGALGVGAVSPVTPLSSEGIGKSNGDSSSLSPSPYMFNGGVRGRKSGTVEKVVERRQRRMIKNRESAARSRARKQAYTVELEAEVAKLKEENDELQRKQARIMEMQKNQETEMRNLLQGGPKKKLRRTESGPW

B1: activating domain (AD) alone (other, UniProt P04386 768-881, looked up)
chain: ANFNQSGNIADSSLSFTFTNSSNGPNLITTQTNSQALSQPIASSNVHDNFMNNEITASKIDDGNNSKPLSPGWTDQTAYNAFGITTGMFNTTTMDDVYNYLFDDEDTPPNPKKE
notes: Negative control prey in the Y2H assay
Turning to B1, the binding result in data set [1] is “no binding”.

B2: HA- and YFP-tagged PYL9 (PYL9-HA-YFP) (receptor)
chain: MMDGVEGGTAMYGGLETVQYVRTHHQHLCRENQCTSALVKHIKAPLHLVWSLVRRFDQPQKYKPFVSRCTVIGDPEIGSLREVNVKSGLPATTSTERLELLDDEEHILGIKIIGGDHRLKNYSSILTVHPEIIEGRAGTMVIESFVVDVPQGNTKDETCYFVEALIRCNLKSLADVSERLASQDITQ
notes: Expressed under the native PYL9 promoter in transgenic Arabidopsis seedlings; also called ProPYL9:PYL9-HA-YFP; not shown: 3HA tag at the C terminus; YFP tag at the C terminus
Take B2: the binding result with ABA-insensitive 1 (ABI1) and in the data set with PP2CA was “binds” in each case.

B3: SnRK2.6 (protein)
chain: MDRPAVSGPMDLPIMHDSDRYELVKDIGSGNFGVARLMRDKQSNELVAVKYIERGEKIDENVKREIINHRSLRHPNIVRFKEVILTPTHLAIVMEYASGGELFERICNAGRFSEDEARFFFQQLISGVSYCHAMQVCHRDLKLENTLLDGSPAPRLKICDFGYSKSSVLHSQPKSTVGTPAYIAPEVLLKKEYDGKVADVWSCGVTLYVMLVGAYPFEDPEEPKNFRKTIHRILNVQYAIPDYVHISPECRHLISRIFVADPAKRISIPEIRNHEWFLKNLPADLMNDNTMTTQFDESDQPGQSIEEIMQIIAEATVPPAGTQNLNHYLTGSLDIDDDMEEDLESDLDDLDIDSSGEIVYAM
For the molecule B3, in the data set with ABF2, Q9M7Q4, the “SAG12-LUC expression in protoplasts” value is “Expression of SnRK2.6 significantly enhanced the ability of ABF2 to increase SAG12-LUC expression in the presence of ABA”.
